Reference: the supplement of paper PMC7932537, “Quantitative profiling of protease specificity” (PLoS Computational Biology, 2021)
± gives the uncertainty stated by the source.

Assays:
MMP-9 catalytic domain = MMP-9 catalytic domain (UniProt P14780); experiment: kcat/KM (M-1 s-1); higher = more efficient cleavage by the protease
Experimental: (§1)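 Catalytic efficiency (kcat/KM) of synthetic peptides carrying hexamer sequences taken from MMP-2/9 substrate phage selections. Cleavage was measured with recombinant human MMP-2 or MMP-9 catalytic domains (expressed in HEK293, APMA-activated, active-site titrated with GM6001), in triplicate, as described in the authors' ref 27.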

MMP-2 catalytic domain = MMP-2 catalytic domain (UniProt P08253); experiment: as above
Experimental: as §1

Sequence of MMP-2 catalytic domain (P08253 whole entry, looked up, the tested form may be a part): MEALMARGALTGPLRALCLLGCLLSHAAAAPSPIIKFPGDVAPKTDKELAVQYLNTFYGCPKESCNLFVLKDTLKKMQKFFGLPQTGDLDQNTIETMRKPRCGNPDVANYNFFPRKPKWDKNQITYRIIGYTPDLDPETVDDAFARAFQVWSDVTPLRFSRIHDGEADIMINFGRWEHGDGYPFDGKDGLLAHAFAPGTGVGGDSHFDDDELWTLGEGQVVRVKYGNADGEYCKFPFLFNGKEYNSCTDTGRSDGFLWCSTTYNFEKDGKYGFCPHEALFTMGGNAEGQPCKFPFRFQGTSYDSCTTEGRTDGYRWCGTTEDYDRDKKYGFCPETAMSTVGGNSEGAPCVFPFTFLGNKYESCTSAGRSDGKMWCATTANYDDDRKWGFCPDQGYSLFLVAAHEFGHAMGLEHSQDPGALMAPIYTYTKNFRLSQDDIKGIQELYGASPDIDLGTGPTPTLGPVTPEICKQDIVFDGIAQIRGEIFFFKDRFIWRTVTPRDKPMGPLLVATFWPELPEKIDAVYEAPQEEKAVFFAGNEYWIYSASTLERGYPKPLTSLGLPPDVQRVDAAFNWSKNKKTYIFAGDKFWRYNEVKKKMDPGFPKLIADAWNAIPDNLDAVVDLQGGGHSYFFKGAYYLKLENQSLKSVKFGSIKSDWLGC
Sequence of MMP-9 catalytic domain (P14780 whole entry, the tested form may be a part): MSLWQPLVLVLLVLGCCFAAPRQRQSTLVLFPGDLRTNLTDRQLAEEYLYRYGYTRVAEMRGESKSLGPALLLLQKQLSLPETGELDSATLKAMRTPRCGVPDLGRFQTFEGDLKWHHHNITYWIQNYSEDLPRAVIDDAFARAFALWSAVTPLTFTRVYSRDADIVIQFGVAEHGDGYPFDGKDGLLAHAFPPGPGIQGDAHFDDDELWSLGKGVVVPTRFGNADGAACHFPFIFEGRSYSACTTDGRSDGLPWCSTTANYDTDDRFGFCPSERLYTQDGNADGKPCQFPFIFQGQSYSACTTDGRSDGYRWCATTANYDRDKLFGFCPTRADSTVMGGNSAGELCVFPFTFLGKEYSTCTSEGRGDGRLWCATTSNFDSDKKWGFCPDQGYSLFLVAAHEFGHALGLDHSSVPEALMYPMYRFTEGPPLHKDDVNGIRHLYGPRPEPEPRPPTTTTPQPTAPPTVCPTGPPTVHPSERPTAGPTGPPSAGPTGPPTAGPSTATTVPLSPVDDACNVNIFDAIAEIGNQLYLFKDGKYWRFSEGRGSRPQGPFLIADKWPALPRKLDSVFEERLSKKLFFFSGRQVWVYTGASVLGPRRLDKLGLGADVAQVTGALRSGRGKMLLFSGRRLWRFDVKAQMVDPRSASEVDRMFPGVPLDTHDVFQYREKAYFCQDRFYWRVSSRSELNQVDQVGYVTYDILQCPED

Row | Substance | kcat/KM (MMP-9 catalytic domain) | kcat/KM (MMP-2 catalytic domain)
1 | AHNLSS | 9130 ± 640 | 16400 ± 620
2 | APALWI | 33400 ± 740 | 34400 ± 940
3 | ARHYKS | 25200 ± 1700 | 15840 ± 130
4 | DGPVSF | 9530 ± 160 | 22200 ± 940
5 | DRKPKA | 0 | 0
6 | DSPQNL | 37200 ± 4900 | 56400 ± 5200
7 | EGPAGL | 55400 ± 2200 | 133000 ± 23000
8 | EPKPLL | 18900 ± 2200 | 17700 ± 940
9 | EPVSLA | 2680 ± 64 | 7230 ± 110
10 | ETPRPW | 7950 ± 380 | 19700 ± 660
11 | EVPQAL | 43200 ± 580 | 47700 ± 3300
12 | GEPFEL | 15500 ± 1100 | 8910 ± 670
13 | GEPRGQ | 52200 ± 3000 | 48000 ± 960
14 | GKPVSM | 43700 ± 2600 | 69800 ± 46000
15 | GPAGIR | 49830 ± 250 | 181000 ± 96000
16 | GPALSY | 17500 ± 760 | 12600 ± 210
17 | GPARPY | 26200 ± 1600 | 39700 ± 1900
18 | GPEGMK | 3600 ± 320 | 9100 ± 920
19 | GPHGYK | 22100 ± 340 | 16400 ± 670
20 | GPKGFR | 34000 ± 2300 | 88300 ± 4700
21 | GPRGLK | 71030 ± 710 | 125000 ± 5300
22 | GPRYLM | 37800 ± 1800 | 30900 ± 11000
23 | GQPMNL | 90600 ± 8800 | 51400 ± 4300
24 | HPVSMV | 8720 ± 330 | 32100 ± 18000
25 | INPQGL | 74100 ± 8200 | 114000 ± 14000

Row | Substance | kcat/KM (MMP-9 catalytic domain) | kcat/KM (MMP-2 catalytic domain)
26 | IPLASL | 3730 ± 120 | 45700 ± 960
27 | IRPKHF | 97100 ± 7900 | 43200 ± 4200
28 | KPVNMT | 84500 ± 2000 | 37600 ± 1600
29 | KSPLRQ | 34600 ± 230 | 6570 ± 450
30 | KSPQAM | 109000 ± 7600 | 62600 ± 6300
31 | KSPQSY | 66100 ± 4700 | 46500 ± 1900
32 | KSPSRL | 140000 ± 4400 | 182000 ± 45000
33 | KSPVGV | 18400 ± 730 | 15000 ± 600
34 | LPKPLR | 45900 ± 2300 | 42400 ± 1700
35 | LSPFGQ | 46100 ± 1800 | 10000 ± 610
36 | MGPLGQ | 73000 ± 9100 | 64800 ± 3000
37 | MRPVGH | 31800 ± 2600 | 39300 ± 3400
38 | MSPANI | 94700 ± 7900 | 188000 ± 23000
39 | NPMPIR | 21200 ± 1300 | 22600 ± 6500
40 | NPQNIR | 20300 ± 620 | 35600 ± 560
41 | NRPNNL | 46200 ± 2100 | 88100 ± 10000
42 | NVARPM | 27000 ± 2400 | 23900 ± 1000
43 | PAGVKA | 15200 ± 610 | 51800 ± 1300
44 | PAPNSL | 49000 ± 6600 | 87800 ± 14000
45 | PAQLHV | 7420 ± 290 | 26000 ± 290
46 | PEGLQG | 19900 ± 590 | 33700 ± 1200
47 | PEPAAL | 89400 ± 9500 | 104000 ± 6400
48 | PGPAGQ | 59800 ± 2100 | 154000 ± 23000
49 | PGPIGI | 38500 ± 1900 | 22800 ± 800
50 | PGPIGW | 28700 ± 860 | 27000 ± 1000

Row | Substance | kcat/KM (MMP-9 catalytic domain) | kcat/KM (MMP-2 catalytic domain)
51 | PHGLAT | 12500 ± 270 | 16300 ± 2800
52 | PHGYKG | 54200 ± 4300 | 34600 ± 650
53 | PHNILS | 51700 ± 1400 | 23800 ± 1000
54 | PHPRLL | 75300 ± 11000 | 30700 ± 650
55 | PIQLQS | 11900 ± 320 | 10300 ± 350
56 | PKALPY | 37300 ± 1400 | 31000 ± 590
57 | PKGYQG | 85700 ± 1400 | 48000 ± 2700
58 | PLQLQT | 24900 ± 1200 | 10000 ± 190
59 | PLRQIG | 33200 ± 5000 | 12300 ± 2000
60 | PMALMD | 36900 ± 3300 | 15300 ± 440
61 | PMDIHA | 46000 ± 1400 | 15300 ± 280
62 | PQGLAG | 40400 ± 1100 | 37400 ± 1300
63 | PQPEGL | 48400 ± 2200 | 53800 ± 2400
64 | PQPLDL | 55200 ± 2700 | 32300 ± 2800
65 | PQPSEL | 45500 ± 5000 | 51200 ± 2200
66 | PRGFSH | 896 ± 900 | 1390 ± 1400
67 | PRGVKG | 62100 ± 850 | 58000 ± 1400
68 | PRPFHH | 23900 ± 850 | 9900 ± 730
69 | PRPQAA | 17000 ± 880 | 13400 ± 1100
70 | PSNMEG | 50100 ± 8300 | 92000 ± 14000
71 | PSPADI | 18600 ± 1600 | 70600 ± 3700
72 | PTPKAL | 69100 ± 1900 | 35900 ± 2400
73 | PVAIPM | 12400 ± 760 | 7030 ± 260
74 | PVGMKG | 64000 ± 7200 | 60400 ± 1200
75 | PVNMTD | 9420 ± 660 | 15700 ± 290

Row | Substance | kcat/KM (MMP-9 catalytic domain) | kcat/KM (MMP-2 catalytic domain)
76 | PYEWHS | 26000 ± 1200 | 5850 ± 600
77 | PYGIKG | 51400 ± 2200 | 54400 ± 2400
78 | QGPAAI | 72300 ± 1400 | 92100 ± 1800
79 | QPLEIR | 45100 ± 1200 | 28400 ± 1100
80 | QPPLPL | 18700 ± 350 | 15400 ± 1400
81 | QQPQAL | 70100 ± 2900 | 46800 ± 2300
82 | QQPSRL | 94300 ± 1600 | 259000 ± 29000
83 | QSPINL | 61100 ± 2800 | 31000 ± 750
84 | RMMREL | 9020 ± 390 | 25300 ± 650
85 | RPEDLR | 16500 ± 1300 | 21300 ± 500
86 | RRPRPL | 38200 ± 2100 | 25000 ± 850
87 | SAAQPL | 11600 ± 400 | 12900 ± 340
88 | SIPLPL | 22400 ± 340 | 15100 ± 430
89 | SPMAFS | 11400 ± 440 | 18400 ± 250
90 | SPPAAI | 64400 ± 1800 | 79700 ± 8500
91 | SRPAEF | 16400 ± 740 | 98800 ± 35000
92 | TAPSSQ | 45100 ± 8000 | 141600 ± 1200
93 | TPAAMT | 21100 ± 1300 | 107000 ± 13000
94 | TQPKAM | 106000 ± 4800 | 54700 ± 1400
95 | TTPSPI | 41000 ± 7100 | 115000 ± 20000
96 | VEPLKF | 48900 ± 1900 | 18000 ± 700
97 | VHPSAV | 33900 ± 3000 | 34300 ± 940
98 | VPQEWR | 16200 ± 1600 | 27700 ± 1800
99 | VSALSS | 7040 ± 190 | 24900 ± 1200
100 | WPSPFR | 11600 ± 180 | 36800 ± 970
